In patent US20190015483A1 (CSL BEHRING RECOMBINANT FACILITY, published 2019):
Where a chain is given by its changes, count along the chain named. In names and notes the source's numbering stands.

Target: T1, recombinant Factor VIII (CSL627, rVIII-SingleChain) (Homo sapiens (Human), UniProt P00451 20-2351)
T1 construct: also called FVIII
T1 sequence: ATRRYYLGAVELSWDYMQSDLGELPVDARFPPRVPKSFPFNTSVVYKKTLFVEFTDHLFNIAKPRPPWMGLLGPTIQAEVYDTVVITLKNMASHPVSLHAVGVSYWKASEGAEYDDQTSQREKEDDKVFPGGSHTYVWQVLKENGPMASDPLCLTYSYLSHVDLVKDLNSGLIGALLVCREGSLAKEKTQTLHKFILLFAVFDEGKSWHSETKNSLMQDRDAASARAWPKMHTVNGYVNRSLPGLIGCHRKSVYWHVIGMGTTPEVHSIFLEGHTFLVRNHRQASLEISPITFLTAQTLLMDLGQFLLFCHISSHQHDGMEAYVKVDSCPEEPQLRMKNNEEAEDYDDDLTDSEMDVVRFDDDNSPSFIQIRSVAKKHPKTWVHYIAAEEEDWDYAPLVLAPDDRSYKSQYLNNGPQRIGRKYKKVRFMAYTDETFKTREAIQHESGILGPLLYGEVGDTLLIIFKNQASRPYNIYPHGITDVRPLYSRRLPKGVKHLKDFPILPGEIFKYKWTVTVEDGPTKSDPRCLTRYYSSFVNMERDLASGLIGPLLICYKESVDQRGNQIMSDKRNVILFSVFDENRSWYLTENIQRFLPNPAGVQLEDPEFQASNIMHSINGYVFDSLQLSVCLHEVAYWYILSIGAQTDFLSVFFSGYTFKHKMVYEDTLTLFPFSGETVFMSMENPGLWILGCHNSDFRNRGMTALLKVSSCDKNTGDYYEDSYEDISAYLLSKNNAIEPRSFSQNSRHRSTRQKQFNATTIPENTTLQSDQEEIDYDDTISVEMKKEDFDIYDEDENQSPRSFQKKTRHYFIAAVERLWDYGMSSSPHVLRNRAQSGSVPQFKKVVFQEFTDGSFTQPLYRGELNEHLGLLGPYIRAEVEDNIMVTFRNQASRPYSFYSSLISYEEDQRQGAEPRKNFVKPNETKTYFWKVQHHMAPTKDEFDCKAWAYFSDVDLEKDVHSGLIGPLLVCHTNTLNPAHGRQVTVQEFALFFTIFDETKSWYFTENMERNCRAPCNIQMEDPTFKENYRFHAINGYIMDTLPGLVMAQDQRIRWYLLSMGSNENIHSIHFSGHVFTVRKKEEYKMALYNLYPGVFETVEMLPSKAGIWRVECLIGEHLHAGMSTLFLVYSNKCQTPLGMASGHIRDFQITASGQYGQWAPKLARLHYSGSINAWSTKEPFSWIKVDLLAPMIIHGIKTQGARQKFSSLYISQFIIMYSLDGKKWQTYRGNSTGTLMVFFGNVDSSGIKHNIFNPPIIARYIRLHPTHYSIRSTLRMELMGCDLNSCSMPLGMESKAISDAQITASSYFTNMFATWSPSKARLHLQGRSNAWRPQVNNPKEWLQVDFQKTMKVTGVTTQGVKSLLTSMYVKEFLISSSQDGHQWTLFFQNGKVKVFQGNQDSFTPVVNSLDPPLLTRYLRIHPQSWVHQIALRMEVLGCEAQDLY
Assay: SPR, anti-His capture, FVIII injected, 37 C
Description: Binding kinetics were investigated by surface plasmon resonance using a Biacore 4000 biosensor at 37° C. Each mutant was captured from cell culture medium to a density of 40-150 RU on a CM-5 sensor chip pre-immobilised with anti-His antibody (14,000 RU). In an initial screening study, FVIII was injected over the captured mutants for 5 minutes at 1 nM and dissociation monitored for 5 minutes.
All sensorgrams were double referenced by subtraction of signals from a reference spot (containing only immobilised anti His antibody) and from a blank injection. Binding kinetics were determined by fitting the double referenced sensorgrams to a 1:1 kinetic model.

B1: Hu-vWF[764-1270]-8His S766W-S806F (other)
chain: SLWCRPPMVKLVCPADNLRAEGLECTKTCQNYDLECMSMGCVFGCLCPPGMVRHENRCVALERCPCFHQGKEYAPGETVKIGCNTCVCRDRKWNCTDHVCDATCSTIGMAHYLTFDGLKYLFPGECQYVLVQDYCGSNPGTFRILVGNKGCSHPSVKCKKRVTILVEGGEIELFDGEVNVKRPMKDETHFEVVESGRYIILLLGKALSVVWDRHLSISVVLKQTYQEKVCGLCGNFDGIQNNDLTSSNLQVEEDPVDFGNSWKVSSQCADTRKVPLDSSPATCHNNIMKQTMVDSSCRILTSDVFQDCNKLVDPEPYLDVCIYDTCSCESIGDCACFCDTIAAYAHVCAQHGKVVTWRTATLCPQSCEERNLRENGYECEWRYNSCAPACQVTCQHPEPLACPVQCVEGCHAHCPPGKILDELLQTCVDPEDCPVCEVAGRRFASGKKVTLNPSDPEHCQICHCDVVNLTCEACQEPGGLVVPPTDAPVSPTTLYVEDISEPPLHDFHHHHHHHH
- binding result: no binding

B2: Hu-vWF[764-1270]-8His S766W-S806L (other)
chain: B1 chain with F43L
- binding result: no binding

B3: Hu-vWF[764-1270]-8His S766Y-P769V (other)
chain: B1 chain with W3Y, P6V, F43S
- Kd: 0.0849 nM
- koff: 0.000565 s⁻¹
- kon: 6.65e+06 M⁻¹ s⁻¹

B4: Hu-vWF[764-1270]-8His S766Y-P769D (other)
chain: B1 chain with W3Y, P6D, F43S
- Kd: 0.165 nM
- koff: 0.000763 s⁻¹
- kon: 4.63e+06 M⁻¹ s⁻¹

B5: Hu-vWF[764-1270]-8His S766Y-P769Y (other)
chain: B1 chain with W3Y, P6Y, F43S
- Kd: 0.0847 nM
- koff: 0.000396 s⁻¹
- kon: 4.68e+06 M⁻¹ s⁻¹

B6: Hu-vWF[764-1270]-8His S766Y-P769R (other)
chain: B1 chain with W3Y, P6R, F43S
- Kd: 0.045 nM
- koff: 0.000295 s⁻¹
- kon: 6.55e+06 M⁻¹ s⁻¹

B7: Hu-vWF[764-1270]-8His S766Y-P769G (other)
chain: B1 chain with W3Y, P6G, F43S
- Kd: 0.212 nM
- koff: 0.000783 s⁻¹
- kon: 3.7e+06 M⁻¹ s⁻¹

B8: Hu-vWF[764-1270]-8His S766Y-P769T (other)
chain: B1 chain with W3Y, P6T, F43S
- Kd: 0.0979 nM
- koff: 0.0005 s⁻¹
- kon: 5.11e+06 M⁻¹ s⁻¹

B9: Hu-vWF[764-1270]-8His S766Y-P769W (other)
chain: B1 chain with W3Y, P6W, F43S
- Kd: 0.0882 nM
- koff: 0.000421 s⁻¹
- kon: 4.77e+06 M⁻¹ s⁻¹

B10: Hu-vWF[764-1270]-8His S766Y-R768A (other)
chain: B1 chain with W3Y, R5A, F43S
- Kd: 0.212 nM
- koff: 0.00148 s⁻¹
- kon: 6.99e+06 M⁻¹ s⁻¹

B11: Hu-vWF[764-1270]-8His S766W-S806W (other)
chain: B1 chain with F43W
- binding result: no binding

B12: Hu-vWF[764-1270]-8His S766W-S806G (other)
chain: B1 chain with F43G
- Kd: 0.245 nM
- koff: 0.00134 s⁻¹
- kon: 5.46e+06 M⁻¹ s⁻¹

B13: Hu-vWF[764-1270]-8His S766W-S806Q (other)
chain: B1 chain with F43Q
- Kd: 0.407 nM
- koff: 0.00176 s⁻¹
- kon: 4.33e+06 M⁻¹ s⁻¹

B14: Hu-vWF[764-1270]-8His S766Y-P769M (other)
chain: B1 chain with W3Y, P6M, F43S
- Kd: 0.108 nM
- koff: 0.000511 s⁻¹
- kon: 4.75e+06 M⁻¹ s⁻¹

B15: Hu-vWF[764-1270]-8His S766W-S806T (other)
chain: B1 chain with F43T
- Kd: 0.125 nM
- koff: 0.000654 s⁻¹
- kon: 5.25e+06 M⁻¹ s⁻¹

B16: Hu-vWF[764-1270]-8His S766W-S806M (other)
chain: B1 chain with F43M
- Kd: 0.425 nM
- koff: 0.000872 s⁻¹
- kon: 2.05e+06 M⁻¹ s⁻¹

B17: Hu-vWF[764-1270]-8His S766Y-P769F (other)
chain: B1 chain with W3Y, P6F, F43S
- Kd: 0.0772 nM
- koff: 0.000427 s⁻¹
- kon: 5.54e+06 M⁻¹ s⁻¹

B18: Hu-vWF[764-1270]-8His S766Y-P769Q (other)
chain: B1 chain with W3Y, P6Q, F43S
- binding result: no binding

B19: Hu-vWF[764-1270]-8His S766W-S806R (other)
chain: B1 chain with F43R
- Kd: 1.29 nM
- koff: 0.0107 s⁻¹
- kon: 8.28e+06 M⁻¹ s⁻¹

B20: Hu-vWF[764-1270]-8His S766W-S806Y (other)
chain: B1 chain with F43Y
- binding result: no binding

B21: Hu-vWF[764-1270]-8His S766W-S806V (other)
chain: B1 chain with F43V
- Kd: 0.149 nM
- koff: 0.000619 s⁻¹
- kon: 4.17e+06 M⁻¹ s⁻¹

B22: Hu-vWF[764-1270]-8His S766Y-P769H (other)
chain: B1 chain with W3Y, P6H, F43S
- Kd: 0.0809 nM
- koff: 0.000417 s⁻¹
- kon: 5.16e+06 M⁻¹ s⁻¹

B23: Hu-vWF[764-1270]-8His S766Y-P769I (other)
chain: B1 chain with W3Y, P6I, F43S
- binding result: no binding

B24: Hu-vWF[764-1270]-8His S766Y-P769L (other)
chain: B1 chain with W3Y, P6L, F43S
- Kd: 0.0917 nM
- koff: 0.00059 s⁻¹
- kon: 6.44e+06 M⁻¹ s⁻¹

B25: Hu-vWF[764-1270]-8His S766W-S806P (other)
chain: B1 chain with F43P
- Kd: 0.133 nM
- koff: 0.000566 s⁻¹
- kon: 4.26e+06 M⁻¹ s⁻¹

B26: Hu-vWF[764-1270]-8His S766W-S806N (other)
chain: B1 chain with F43N
- Kd: 0.152 nM
- koff: 0.000585 s⁻¹
- kon: 3.84e+06 M⁻¹ s⁻¹

B27: Hu-vWF[764-1270]-8His S766Y-P769N (other)
chain: B1 chain with W3Y, P6N, F43S
- Kd: 0.0325 nM
- koff: 0.00052 s⁻¹
- kon: 1.6e+07 M⁻¹ s⁻¹

B28: Hu-vWF[764-1270]-8His S766W-S806I (other)
chain: B1 chain with F43I
- Kd: 0.283 nM
- koff: 0.000447 s⁻¹
- kon: 1.58e+06 M⁻¹ s⁻¹

B29: Hu-vWF[764-1270]-8His S766Y-P769S (other)
chain: B1 chain with W3Y, P6S, F43S
- Kd: 0.113 nM
- koff: 0.000511 s⁻¹
- kon: 4.51e+06 M⁻¹ s⁻¹

B30: Hu-vWF[764-1270]-8His S766Y-P769E (other)
chain: B1 chain with W3Y, P6E, F43S
- Kd: 0.0936 nM
- koff: 0.000414 s⁻¹
- kon: 4.42e+06 M⁻¹ s⁻¹

B31: Hu-vWF[764-1270]-8His S766Y-R768D (other)
chain: B1 chain with W3Y, R5D, F43S
- Kd: 0.908 nM
- koff: 0.00448 s⁻¹
- kon: 4.94e+06 M⁻¹ s⁻¹

B32: Hu-vWF[764-1270]-8His S766Y-P769A (other)
chain: B1 chain with W3Y, P6A, F43S
- Kd: 0.106 nM
- koff: 0.000519 s⁻¹
- kon: 4.9e+06 M⁻¹ s⁻¹

B33: Hu-vWF[764-1270]-8His S766Y-P769K (other)
chain: B1 chain with W3Y, P6K, F43S
- Kd: 0.0607 nM
- koff: 0.000383 s⁻¹
- kon: 6.31e+06 M⁻¹ s⁻¹

B34: Hu-vWF[764-1270]-8His S766W-S806H (other)
chain: B1 chain with F43H
- Kd: 0.093 nM
- koff: 0.000828 s⁻¹
- kon: 8.9e+06 M⁻¹ s⁻¹
